The values below come from the domain aggregation screens of Martell et al. (2025).

This data set in a line: soluble fraction after stress (log2 fold change); higher = more stays soluble; pooled small domains, quantitative proteomics. The note with it: stress: 75 degC.
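Note: 20 min heating vs room temperature control held 20 min.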

Turning to “HMDLPRQSQYQALVVSYARRAGIDEAEEDLLAAFEVWRMRHNHDLAGGRTARDFILAYLPQYQRHKE”, the “soluble fraction (log2)” value is -1.98.

On to “HMDLQNIQNQLNTEFAKSDTRIIFWFDDKGEYEDEVSELQLGDVKLHILDGLNWFYSKYLLNEA”, for which the “soluble fraction (log2)” value is -0.141.

On to “HMDLRAPKPIKEMGEEYIKLYQYLRKGESENIVMSKMNISLDDYDYMRSEIEDKLSLYNMLDLLRKP”, for which the “soluble fraction (log2)” value was -0.978.

With “HMDLRVKRTNKMIMEAFIHLVEQKGYDNITVQEIADEAMINRATFYAHFKDKQDLYDHIFKQAI”, the “soluble fraction (log2)” value is -0.902.

As for “HMDLSPEQAELAAIRGELGIKIDDYALALNIPRDRLTSYLYGRANVPAEVLISARELRYASSA”, the “soluble fraction (log2)” value is -0.0206.

Take “HMDMQNIQKGLSAIEPGRTFSREEYYAAIQNGSEMLLKEDALAYSLRKSLSDGDIVRVSWNQYAIP”: the “soluble fraction (log2)” value was -0.107.

With “HMDMTPEEFLAWARHKPFGDPFPKTQTVTFLVPLLGVSRTNIFTWISGKVNPSKTSLLLMEALKRENR”, the “soluble fraction (log2)” value is -0.493.

For “HMDNEIEQIVEDLNLTLSSLKYTKNQIESILPLIIKEIDDFKKKEKNISFENLLKLAMNHLDND”, the “soluble fraction (log2)” value was -0.38.

As for “HMDNEIRIPLPSLQRDGFSIGTREDDGSQLVRIMSAGSFGGMIRSFRLPEGMRIEGAKWEGEIVSIRL”, the “soluble fraction (log2)” value was -0.00847.

As to “HMDNEVTIAVQVNGKLRDKLIVALDTPNEKIEQLALALPKVIQNTSGLTVRKVIVIPNRLVNIVA”, the “soluble fraction (log2)” value was -1.92.

“HMDNIKRGEMFYISRGGASYSGSEQHSDRPAVVVSNDKNNENSNVVEVVYMTTQPKTDLPTHVTVR”: the “soluble fraction (log2)” value was 0.0515.

Take “HMDNLKELDEILETYGKKKGYLITILQKAQDAYGYISIDIMNRISEFTGIKVAKIYGVATFYAQFRL”: the “soluble fraction (log2)” value was determined as 0.0785.

As for “HMDNPLSQQEKRILQLISLGKTNQEIADILYLSNGTVRNYISSILNKLSANNRVEAARIAEEHGW”, the “soluble fraction (log2)” value was -0.755.

For “HMDNPNVMAQVKSLLASKGLSEQEVKERLKAKGLNIDAMSDAEIAQNRSVIEQTIAELEAEKKKAG”, the “soluble fraction (log2)” value amounted to 0.205.

As to “HMDNPYEVFIPNSYIGQRLDQTLASLFPQFSRSRLQNWLASGNLLVNGKIVKPKTKILGGEQINILDPYN”, the “soluble fraction (log2)” value is -0.608.

For “HMDNTFEEVKEKLLDLLKERPLTPAEVSKRMEEDKNILAQVIQYLLEEEIIKTEDGMLSKVIG”, the “soluble fraction (log2)” value is -0.038.

Consider “HMDNWYIAFNSFLSQNKLTAKNVSELTGLSKPTIDSYKQGKRKPTDENMQIIKDKLGFNISEILYN”, for which the “soluble fraction (log2)” value was -0.0615.

Regarding “HMDPDDEILINIMTKLLTEKQIIIKNKEIFNFLLKRINRTYEEVYNLINKMDKLSLEKKKQLTIPSIKEL”, the “soluble fraction (log2)” value is -1.71.

Turning to “HMDPEEETLKNMQRMLQDSGPLKKTEFSLLAKSLGIAEKKARKLIDRGRGRFWTVESGEQKNTQLVTPIQ”, the “soluble fraction (log2)” value is -0.108.

With “HMDPERVVGQTGIVHLRIPARQHNTGKVMIEVQGSLREFDAVSEAEEIPTGTPILIVGRTEEGVFIAQPF”, the “soluble fraction (log2)” value was -0.286.

Take “HMDPGPVLISAQVLDDLEAIRRDGSSNMLDWPAVARLAEVMGMDRTAAWVRTHHREYSAGIFRGFASD”: the “soluble fraction (log2)” value was -1.93.

Take “HMDPHEEELLRQLIRGDIAGYEVLFHKYYPTFFAFIKGMTKETVVAEDITQNIFMKVWLNRERLDAA”: the “soluble fraction (log2)” value was -0.145.

For the sequence “HMDPIATLTPREREVLSLMAEGRSNGAIAAALVVGDGAVEKHVSNIFQKLELTPAEGDHRRVLAVLRWLE”, the “soluble fraction (log2)” value was -0.909.

Regarding “HMDPLADLFSRIRNAQMRNKKVVTSPASKLRAGILEVLAKEGYIRGYAMTQHASGKNELDIELN”, the “soluble fraction (log2)” value is -1.05.

For “HMDPNAITSAQVTKLQVLANEKGFAERQARLTMWAEVIGRNVGTANELTKAEAHKLIEHMDALPV”, the “soluble fraction (log2)” value is -0.691.

Turning to “HMDPNFKYIIRIANSDVSGEQKLAYALTSIRGIGERTSNAIIQKLGLDSTQLAGKLTDKNVEDIESA”, the “soluble fraction (log2)” value was found to be 0.092.

As for “HMDPPQEVWDLTRSYLDSMNRPVHGHKSPQETYLRQVKSHRLPATALWDYFMAQRFHAVHATSESAA”, the “soluble fraction (log2)” value is -0.127.

Take “HMDPPYKDKNLHELLLKINNLNILKKDSVIILHRHKKQKEIFPSNFKIIEQKQYGISKIIFLTVL”: the “soluble fraction (log2)” value is -0.00334.

As to “HMDPRTSSLTPQERKVLELVGGGLTNRQIAAEMFLAEKTVKNYVSSLLAKLGFERRTQAAVFIASPAF”, the “soluble fraction (log2)” value was -0.54.

Consider “HMDPSKLVEVQEPVSMKALSEGLGIKVTELIATFAFKLKIGGKNINSMLSNDEVELVALDLERNIKVV”, for which the “soluble fraction (log2)” value amounted to 0.258.

On to “HMDPTEPLFVGVVTAEPYLNIREYPTTQSKDLGDLFPGMHVNVYEIVPNWYRIDDGWVASAWVKRDWGGG”, for which the “soluble fraction (log2)” value is -0.478.

In the case of “HMDPTIRRGELIDAASRLFLSKGYAATSVRDILDEVGNRTASPSVFYYYFKSKEEIYQAVLRRHSE”, the “soluble fraction (log2)” value was -1.51.

“HMDPTVSGQTGSVVREIRPGVPGEVELSVPLYGIRRWQAMADGILAEGTRVTVIQAEGVRLSVRPV”: the “soluble fraction (log2)” value was -1.24.

As to “HMDPTVTFIVQVNGRVRDKITLSSDISENEAKNVALESPKITPHISGKSLSRVIFVPGKLINLVV”, the “soluble fraction (log2)” value was -1.06.

As for “HMDPVATLTPREREVLELMAEGRTNAGIAEAMVVTEGAVEKHIQRIFAKLGLHADGGVHRRVAAVLALLG”, the “soluble fraction (log2)” value was -1.38.

With “HMDQDIILHKVQPGDTLSKILLHYHSHQDRNKLQGLIAESMTANPFIKNPDLIYPGQLIQVPVPA”, the “soluble fraction (log2)” value came to 0.0879.

With “HMDQFMLQSAWLRAVQHVMKHTDDVGTQFAEEARRMHYGEADERPIRGQATSDEARALHDEGIEVMALPI”, the “soluble fraction (log2)” value was -0.36.

For the sequence “HMDQILIHLKEGIDVTDVQPMLKALDLNVRMFNRDKNIIVISVLNRELDAIPQTIAALRPWEELFDSA”, the “soluble fraction (log2)” value was determined as 0.171.

For “HMDQNVSVPKLAGLQVEEANAILKSKGLHIEIIDSIYQKDAVPGAIIEQVPEENSKVKKGRAIYVSVYAK”, the “soluble fraction (log2)” value is -0.65.

With “HMDQVYYDLKSLIELLPADQMEVLKMRYFEELSFKKIAQKIDVSINTALGRMRYALINLRALSKKHHID”, the “soluble fraction (log2)” value was -0.272.

As for “HMDRDMGSMTDFENVRDAYLTGKVWNVGDLIEANGITGIIIRKGTNYVSYNDGDGKVHKAWLHDITL”, the “soluble fraction (log2)” value was -0.802.

Consider “HMDREILWTNYVAARKQEFIASSIDTIGAEYLDNRRFWDTQFEREWTIIAERLASGFGLTDDILSIVGSDF”, for which the “soluble fraction (log2)” value was -4.12.

On to “HMDRETEEYELIRAKLEWLYQKQTGTIRNQTAKILHHLEIAKEEGNYYLYLKIKEEAKQWLVQASMYLD”, for which the “soluble fraction (log2)” value is -0.638.

With “HMDRGDVTREALIKAAIEIFGRDGFHAASTRAIAERAGANQALIGYHFRGKLGLYHATFEYIIGKI”, the “soluble fraction (log2)” value was -0.351.

Consider “HMDRMINYSPIVAKVPQDDYTTKVYNIPIYSELTVVDKISEPEPLIAPIYRFKYITPEDEEIEFDIPV”, for which the “soluble fraction (log2)” value is -0.00941.

As to “HMDRMMQPETWGRVYQWITDDPQVPDREEVLTLIKYHYGDFGKLMKLLHRLNEGKAWTYLSEHIFPRM”, the “soluble fraction (log2)” value was -0.254.

Regarding “HMDRNEFVSTLRAALTGAVSPAIVEDNVRYYQNYISQEIASGKSEKEVLDGLGDPRLIARTIIDT”, the “soluble fraction (log2)” value is 0.0747.

“HMDRNIVYSDFIRSVNQGQVSEVLVQGDNIRGRYLNGKVFQTFAPKDPSLISTLRNKGVRISAEPA”: the “soluble fraction (log2)” value was 0.00952.

With “HMDRRSTTLQDIYTRIDAEEISEALELIPKLGEIEFEQNRAEIAEAAGVRPAVLDKLRKQAAKQENNKK”, the “soluble fraction (log2)” value was -0.00584.

For “HMDRSAQVLFLEHARSRLPQRIQWAEELAELLSIGIDSAYRRIRGETALTFNEAVSVSRKYDISLDYLFK”, the “soluble fraction (log2)” value was -3.79.

Take “HMDRSKREKEQQELMLKVQQIFDDNQQRFGAEKIRTVLAQNGVRVSVKRVSAIMQELNLRSIR”: the “soluble fraction (log2)” value is -2.36.

Consider “HMDRVMPVPEALIGMRFDIAVSRMLGVSRSQAAAYIDRGQVSIAGRGSQRSAQKSEKLVQGDSIEVAIA”, for which the “soluble fraction (log2)” value is -1.39.

For “HMDRWSLLTLTTLAGGTLRFTELKRAIGDISQRMLAQTLRTLEREGYVSRKVYATIPPKVEYRLTALGQSL”, the “soluble fraction (log2)” value is -3.21.

As to “HMDRYAVRAEELAAALAQYHRHVGVYPENLEDLIAPTGPRGYRGPYLSELPTNPSTSKPDWGYDPATGRVS”, the “soluble fraction (log2)” value was determined as 0.432.

Consider “HMDSAFVSDIRDAFDEAGVDSYRFFGTHSFKRGGVQLYRLLGVSDQEIKERGHWQTFSAYFAYVQA”, for which the “soluble fraction (log2)” value amounted to 0.164.

As for “HMDSESGAIIRRAVAQLAPKFRSTIVLRLIEGYSTEETAQILQLPVGTVLSRLARAKVQLMNLLTPYKEL”, the “soluble fraction (log2)” value is -0.0893.

As to “HMDSIDIDAETKSLGPNAPQIIKGIKEWGQGLVAKGVWSDQDFEEFKVFAATANGINALNKVRKFY”, the “soluble fraction (log2)” value is -0.037.

For the sequence “HMDSIDVQQKKLLTDIELGNIEGIKLFLKRHNNTINFLTIKGFHPLVYAVRNNNMEIVNLFLTT”, the “soluble fraction (log2)” value was 0.149.

Regarding “HMDSIGTQIRKLREEAEMPLRKLSALLDIDQSTLSKIERDERRANTQMIEQIAKIFKVNKEQLLVA”, the “soluble fraction (log2)” value was -0.77.

Consider “HMDSKPNDLLFVYVSQLIRSLTLNSSKKDSELADELEVSISQIRIWLKKLINEQLIVKESKPVKYRWKG”, for which the “soluble fraction (log2)” value was -2.84.

In the case of “HMDSLARKTVNGAEFYIYPVESAEGFYSLRRKFGVSQEEVIKYNPSAQNGLKSGQVLLIPVT”, the “soluble fraction (log2)” value is -0.298.

Consider “HMDSLQDFAYEEIKKRIQNGEYAPGTKLNTQEISDSLGISRSPVLAAINRLIALGLVEATPRKGTTVA”, for which the “soluble fraction (log2)” value was -0.116.

“HMDSLSGQQGRVLEEINGFLQTGKVLLNGMEWSAVSKQPEDILPVDTEVVVVRVEGAHLVVKKA”: the “soluble fraction (log2)” value is -0.286.

“HMDSPRITMDQLRIGLYVYLDLTWFQHPFAFSHFKINSEDQIKTILGLGLKSVRYDPALSDPV”: the “soluble fraction (log2)” value was -2.91.

As to “HMDSQSVFADLVKSLSQKIASIPVWFEYTKNEQYDLISSYVSAKLKDLGVEFSQEEKEKFITMFMNS”, the “soluble fraction (log2)” value is -0.609.

With “HMDSRQIIAALQARYADETGITALKIKFNNVLGYFVDVPARYGDPLMKPPLSETFIHRQTLASNVRF”, the “soluble fraction (log2)” value is -0.0679.

Consider “HMDSSITLMRMYIPKGHNWENKLISDVSMPTNSLALMIKRNGTTIIPKGDTMILAKDTLILSVPSYEPS”, for which the “soluble fraction (log2)” value was -2.6.

Take “HMDSSNLSLIAGVGPTIEKKLRAAGITSWEQIAAWTEADVAKYDEELNLRGRITRDEWIEQAKELLAGKPP”: the “soluble fraction (log2)” value was 0.0267.

As for “HMDSTLDLVATQGGRLDQVLAEMIPEHSRNRLQHWIKAGRVLVDGQPVLEPKHKIYGGEDLAVRVD”, the “soluble fraction (log2)” value was 0.215.

As for “HMDSVSAVRTTHLNSYVLLLEKDGMAAATISRYIASMKGFFEYLFREHMIEEDPAFTLKPPKV”, the “soluble fraction (log2)” value was found to be 0.009.
